Source: patent publication US20240376218A1 (published 2024)
Each block holds one binder with its values, some of them ahead of it.

What was measured:
Experiment in all cases: cell-based or functional assay
human CCR8 [1] = target: T1, human CCR8 (human, UniProt P51685 1-355)
murine CCR8 = target: T2, murine CCR8 (mouse, UniProt P56484 1-353)
T2 sequence: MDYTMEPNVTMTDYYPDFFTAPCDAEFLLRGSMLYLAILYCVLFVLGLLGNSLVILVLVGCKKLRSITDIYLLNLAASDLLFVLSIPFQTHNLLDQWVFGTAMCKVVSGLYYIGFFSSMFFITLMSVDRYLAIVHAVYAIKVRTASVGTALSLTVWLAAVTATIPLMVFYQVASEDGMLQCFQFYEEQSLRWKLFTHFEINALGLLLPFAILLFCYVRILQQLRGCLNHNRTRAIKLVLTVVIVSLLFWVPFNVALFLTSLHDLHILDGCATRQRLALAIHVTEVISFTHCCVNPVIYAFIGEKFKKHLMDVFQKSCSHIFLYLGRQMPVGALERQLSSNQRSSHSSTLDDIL

human CCR8 [2] = target: human CCR8 (human, UniProt P51685 1-355); remark: listed apart in the source
human CCR8 [3] = target: T1, human CCR8; remark: listed apart in the source

B2: TPP-15285 (antibody, mouse IgG2a)
heavy: EVQLLESGGGLVQPGGSLRLSCAASGFTFSDYGVHWVRQAPGKGLEWVSGVSWNGSRTHYADSVKGRFTISRDNSKNTLYLQMNSLRAEDTAVYYCVTRGAWGQGTLVTVSSAKTTAPSVYPLAPVCGDTTGSSVTLGCLVKGYFPEPVTLTWNSGSLSSGVHTFPAVLQSDLYTLSSSVTVTSSTWPSQSITCNVAHPASSTKVDKKIEPRGPTIKPCPPCKCPAPNLLGGPSVFIFPPKIKDVLMISLSPIVTCVVVDVSEDDPDVQISWFVNNVEVHTAQTQTHREDYNSTLRVVSALPIQHQDWMSGKEFKCKVNNKDLPAPIERTISKPKGSVRAPQVYVLPPPEEEMTKKQVTLTCMVTDFMPEDIYVEWTNNGKTELNYKNTEPVLDSDGSYFMYSKLRVEKKNWVERNSYSCSVVHEGLHNHHTTKSFSRTPGK
light: QSVLTQPPSASGTPGQRVTISCSGSSFNIGSHFVYWYQQLPGTAPKLLIYKNNQRPSGVPDRFSGSKSGTSASLAISGLRSEDEADYYCAAWDDSLNGPVFGGGTKLTVLGQPKSSPSVTLFPPSSEELETNKATLVCTITDFYPGVVTVDWKVDGTPVTQGMETTQPSKQSNNKYMASSYLTLTARAWERHSSYSCQVTHEGHTVEKSLSRADCS
ADCC EC50 (pM); murine CCR8 expressing HEK293 target cells, primary murine NK effector cells (murine CCR8): 111 pM

B5: TPP-17578 (antibody, human IgG1, lambda, V domains shown)
VH: EVQLLESGGGLVQPGGSLRLSCAASGFTFSNAWMSWVRQAPGKGLEWVSGINWNGGSTGYADSVKGRFTISRDNSKNTLYLQMNSLRAEDTAVYYCVRTYSGHYGPYFDNWGQGTLVTVSS
VL: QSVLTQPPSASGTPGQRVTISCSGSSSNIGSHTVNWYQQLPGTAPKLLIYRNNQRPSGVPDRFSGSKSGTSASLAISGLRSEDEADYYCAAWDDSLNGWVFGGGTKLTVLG
Ca flux assay IC50 (nM), block of signaling induced by CCL1 at 80 ng/ml; CHO cells expressing human CCR8 (human CCR8 [1]): 4.53 nM

B6: TPP-21045 (antibody, human IgG1, lambda, V domains shown)
VH: EVQLLESGGGLVQPGGSLRLSCAASGFTFSSAWMSWVRQAPGKGLEWVSGISWSGGSTGYALSVKGRFTISRDNSKNTLYLQMNSLRAEDTAVYYCARTYSGHYGPFFDYWGQGTLVTVSS
VL: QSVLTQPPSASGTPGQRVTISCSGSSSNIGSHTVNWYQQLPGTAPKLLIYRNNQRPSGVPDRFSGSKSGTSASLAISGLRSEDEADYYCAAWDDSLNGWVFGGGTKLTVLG
Ca flux assay IC50 (nM), block of signaling induced by CCL1 at 60 ng/ml; CHO cells expressing human CCR8 (human CCR8 [3]): 0.29 nM

Continued, values first:

Ca flux assay IC50 (nM), block of signaling induced by CCL1 at 80 ng/ml; CHO cells expressing human CCR8 (human CCR8 [1]): 1.6 nM
B1: TPP-18205 (antibody, human IgG1, lambda, V domains shown)
VH: EVQLLESGGGLVQPGGSLRLSCAASGFTFSSYAMSWVRQAPGKGLEWVSGIRWNSGSKGYAGSVKGRFTISRDNSKNTLYLQMNSLRAEDTAVYYCVRSGNYYVGYHGMDVWGQGTLVTVSS
VL: QSVLTQPPSASGTPGQRVTISCSGGNSNIGTYFVSWYQQLPGTAPKLLIYTNNQRPSGVPDRFSGSKSGTSASLAISGLRSEDEADYYCETWDSNTRVFGGGTKLTVLG

ADCC Max Response (%); activated human Tregs (Donor 1100) as target cells, NK92v effector cells (human CCR8 [2]): 91%
ADCC hTreg EC50 (pM); activated human Tregs (Donor 1100) as target cells, NK92v effector cells (human CCR8 [2]): 5.82 pM
B3: TPP-20955, afucosylated (antibody, human IgG1, lambda, V domains shown)
VH: EVQLLESGGGLVQPGGSLRLSCAASGFTFSSYGMHWVRQAPGKGLEWVSAIKWGGGSHGYADSVKGRFTISRDNSKNTLYLQMNSLRAEDTAVYYCARGHHKGYDGRFFDYWGQGTLVTVSS
VL: QSVLTQPPSVSGAPGQRVTISCTGSSSNIGAGYNVHWYQQLPGTAPKLLIYTNNRRPSGVPDRFSGSKSGTSASLAISGLRSEDEADYYCAAWDASLSGWVFGGGTKLTVLG
modifications: afucosylated (no fucose on the N-glycan at N297)

Ca flux assay IC50 (nM), block of signaling induced by CCL1 at 80 ng/ml; CHO cells expressing human CCR8 (human CCR8 [1]): 93.8 nM
B4: TPP-17577 (antibody, human IgG1, lambda, V domains shown)
VH: EVQLLESGGGLLQPGGSLRLSCAASGFTFSNAWMSWVRQAPGKGLEWVAVISYDGRNKYSADSVKGRFTISRDNSKNTLYLQMNSLRAEDTAVYYCARGLPYGYWGQGTLVTVSS
VL: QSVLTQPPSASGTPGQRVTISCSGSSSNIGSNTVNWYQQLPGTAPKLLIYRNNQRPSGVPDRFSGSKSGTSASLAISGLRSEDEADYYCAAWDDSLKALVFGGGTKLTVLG
